# Data: publication PMC10973363, “Insights into the modulation of bacterial NADase activity by phage proteins” (Nature Communications, 2024)
# Where a chain is given by its changes, count along the chain named.
# T1: defense-associated sirtuin 2 (DSR2), full-length wild type (Bacillus subtilis 29R, UniProt P0DXN8 1-1005)
# T1 construct: DSR2 from Bacillus subtilis 29R, WP_029317421; Cloned into the 2CT-10 vector (Addgene plasmid #55209) with His-MBP tag and TEV site; DSR2-TTP was cloned into a pET-derived vector with an N-terminal His tag; also called WT DSR2; full-length DSR2; source: E. coli Rosetta (DE3), purified (Ni-NTA, TEV cleavage, anion exchange, gel filtration); not shown: His, N-terminal, cleaved; MBP, N-terminal, …
# T1 sequence (looked up): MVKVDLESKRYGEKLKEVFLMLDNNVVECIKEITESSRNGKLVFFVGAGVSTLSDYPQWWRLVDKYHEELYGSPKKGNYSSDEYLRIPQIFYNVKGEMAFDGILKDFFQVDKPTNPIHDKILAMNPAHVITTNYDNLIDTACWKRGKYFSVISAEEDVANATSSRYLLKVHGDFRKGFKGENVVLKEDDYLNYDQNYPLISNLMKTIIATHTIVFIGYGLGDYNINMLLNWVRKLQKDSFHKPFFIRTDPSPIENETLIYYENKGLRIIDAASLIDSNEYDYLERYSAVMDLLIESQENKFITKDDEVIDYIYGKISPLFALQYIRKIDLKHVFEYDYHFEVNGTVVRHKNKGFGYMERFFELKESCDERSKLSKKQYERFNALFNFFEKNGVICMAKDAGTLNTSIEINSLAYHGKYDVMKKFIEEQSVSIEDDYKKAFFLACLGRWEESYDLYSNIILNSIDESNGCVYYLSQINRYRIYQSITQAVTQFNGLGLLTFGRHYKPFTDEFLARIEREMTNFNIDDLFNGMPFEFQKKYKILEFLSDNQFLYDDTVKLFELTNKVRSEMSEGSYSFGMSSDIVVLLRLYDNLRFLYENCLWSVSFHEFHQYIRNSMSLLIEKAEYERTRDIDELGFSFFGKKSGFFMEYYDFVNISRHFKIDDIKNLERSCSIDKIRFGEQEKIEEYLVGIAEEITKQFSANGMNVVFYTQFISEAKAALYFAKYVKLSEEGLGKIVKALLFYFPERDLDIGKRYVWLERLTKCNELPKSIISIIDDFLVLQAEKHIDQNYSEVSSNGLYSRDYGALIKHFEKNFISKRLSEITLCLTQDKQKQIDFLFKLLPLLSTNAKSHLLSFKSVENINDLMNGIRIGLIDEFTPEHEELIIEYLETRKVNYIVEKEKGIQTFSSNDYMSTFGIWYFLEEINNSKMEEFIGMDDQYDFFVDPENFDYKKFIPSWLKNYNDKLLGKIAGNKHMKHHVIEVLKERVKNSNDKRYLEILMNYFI
# T2: DSR2 K960A/D993A (Bacillus subtilis 29R, UniProt P0DXN8 1-1005, K960A | D993A)
# T2 construct: DSR2 from Bacillus subtilis 29R, WP_029317421, with K960A and D993A; source: E. coli Rosetta (DE3), purified (Ni-NTA, TEV cleavage, anion exchange, gel filtration); not shown: His, N-terminal, cleaved; MBP, N-terminal, cleaved
# T2 sequence (looked up): T1 sequence (looked up) with K960A, D993A
# B1: DSR anti-defense 1 (DSAD1), His-tagged (natural protein)
# chain: MIEIFKDTGATHDLVYHSKINTFVWDVEFDIVLSDSKELNKCYFVKCFNPYRINGKCDFAVSSIDIFSEGKRLLIENEFNFKITKAVHVATSKDVTEIVLHLSERISSPFPIVKEVVYLD
# notes: phage-encoded DSAD1, WP_004399562; aa 1-9 not built in the cryo-EM model; Cloned into a pET-derived vector with an N-terminal His tag; also called anti-DSR2 protein; His-tagged DSAD1; source: E. coli Rosetta (DE3), purified (Ni-NTA, anion exchange, gel filtration); not shown: His, N-terminal, kept
# Key:
# [1] = biological target: T1, defense-associated sirtuin 2 (DSR2), …; experiment: AUC; sedimentation velocity, samples at 1 mg/mL in gel-filtration buffer (25 mM Tris-HCl pH 7.5, 150 mM NaCl, 2 mM DTT), SEDFIT and SEDPHAT; details: both partners purified
# [2] = biological target: T2, DSR2 K960A/D993A; experiment: pull-down; N-terminal His-tagged TTP or DSAD1 on Ni-NTA agarose beads, excess untagged DSR2 variants added, 1 h at 4 °C, 25 mM Tris-HCl pH 7.5, 300 mM NaCl, washes with 10 mM imidazole, SDS-PAGE with Coomassie staining; details: both partners purified
binder,measurement,setting,value
B1,binding result,[1],binds
same,binding result,[2],binds
